Laboratory results taken from patent US10647739B2, “Flavonoids O-A-glucosylated on the B cycle, method for the production thereof and uses” (Institut National de la Recherche Agronomique, priority 2014, dated 2020).
Where a chain is given by its changes, count along the chain named. Numbers in names are those of the source.

B1: V331P: ASNp amylosucrase single mutant (protein, UniProt Q9ZEU2 1-636, looked up, variant V331P)
Amylosucrase: MLTPTQQVGLILQYLKTRILDIYTPEQRAGIEKSEDWRQFSRRMDTHFPKLMNELDSVYGNNEALLPMLEMLLAQAWQSYSQRNSSLKDIDIARENNPDWILSNKQVGGVCYVDLFAGDLKGLKDKIPYFQELGLTYLHLMPLFKCPEGKSDGGYAVSSYRDVNPALGTIGDLREVIAALHEAGISAVVDFIFNHTSNEHEWAQRCAAGDPLFDNFYYIFPDRRMPDQYDRTLREIFPDQHPGGFSQLEDGRWVWTTFNSFQWDLNYSNPWVFRAMAGEMLFLANLGVDILRMDAVAFIWKQMGTSCENLPQAHALIRAFNAVMRIAAPAPFFKSEAIVHPDQVVQYIGQDECQIGYNPLQMALLWNTLATREVNLLHQALTYRHNLPEHTAWVNYVRSHDDIGWTFADEDAAYLGISGYDHRQFLNRFFVNRFDGSFARGVPFQYNPSTGDCRVSGTAAALVGLAQDDPHAVDRIKLLYSIALSTGGLPLIYLGDEVGTLNDDDWSQDSNKSDDSRWAHRPRYNEALYAQRNDPSTAAGQIYQGLRHMIAVRQSNPRFDGGRLVTFNTNNKHIIGYIRNNALLAFGNFSEYPQTVTAHTLQAMPFKAHDLIGGKTVSLNQDLTLQPYQVMWLEIA
B2: V331W: ASNp amylosucrase single mutant (protein, UniProt Q9ZEU2 1-636, looked up, variant V331W)
Amylosucrase: B1 Amylosucrase with P331W
B3: V331C: ASNp amylosucrase single mutant (protein, UniProt Q9ZEU2 1-636, looked up, variant V331C)
Amylosucrase: B1 Amylosucrase with P331C
B4: V331R: ASNp amylosucrase single mutant (protein, UniProt Q9ZEU2 1-636, looked up, variant V331R)
Amylosucrase: B1 Amylosucrase with P331R
B5: V331H: ASNp amylosucrase single mutant (protein, UniProt Q9ZEU2 1-636, looked up, variant V331H)
Amylosucrase: B1 Amylosucrase with P331H
B6: V331F: ASNp amylosucrase single mutant (protein, UniProt Q9ZEU2 1-636, looked up, variant V331F)
Amylosucrase: B1 Amylosucrase with P331F
B7: V331I: ASNp amylosucrase single mutant (protein, UniProt Q9ZEU2 1-636, looked up, variant V331I)
Amylosucrase: B1 Amylosucrase with P331I
B8: V331K: ASNp amylosucrase single mutant (protein, UniProt Q9ZEU2 1-636, looked up, variant V331K)
Amylosucrase: B1 Amylosucrase with P331K
B9: V331S: ASNp amylosucrase single mutant (protein, UniProt Q9ZEU2 1-636, looked up, variant V331S)
Amylosucrase: B1 Amylosucrase with P331S
B10: V331E: ASNp amylosucrase single mutant (protein, UniProt Q9ZEU2 1-636, looked up, variant V331E)
Amylosucrase: B1 Amylosucrase with P331E
B11: V331G: ASNp amylosucrase single mutant (protein, UniProt Q9ZEU2 1-636, looked up, variant V331G)
Amylosucrase: B1 Amylosucrase with P331G
B12: V331D: ASNp amylosucrase single mutant (protein, UniProt Q9ZEU2 1-636, looked up, variant V331D)
Amylosucrase: B1 Amylosucrase with P331D
B13: V331Q: ASNp amylosucrase single mutant (protein, UniProt Q9ZEU2 1-636, looked up, variant V331Q)
Amylosucrase: B1 Amylosucrase with P331Q
B14: V331T: ASNp amylosucrase single mutant (protein, UniProt Q9ZEU2 1-636, looked up, variant V331T)
Amylosucrase: B1 Amylosucrase with P331T
B15: V331Y: ASNp amylosucrase single mutant (protein, UniProt Q9ZEU2 1-636, looked up, variant V331Y)
Amylosucrase: B1 Amylosucrase with P331Y
B16: R446Q: ASNp amylosucrase single mutant, SEQ ID NO: 8 (protein, listed as Neisseria polysaccharea)
chain: SPNSQYLKTRILDIYTPEQRAGIEKSEDWRQFSRRMDTHFPKLMNELDSVYGNNEALLPMLEMLLAQAWQSYSQRNSSLKDIDIARENNPDWILSNKQVGGVCYVDLFAGDLKGLKDKIPYFQELGLTYLHLMPLFKCPEGKSDGGYAVSSYRDVNPALGTIGDLREVIAALHEAGISAVVDFIFNHTSNEHEWAQRCAAGDPLFDNFYYIFPDRRMPDQYDRTLREIFPDQHPGGFSQLEDGRWVWTTFNSFQWDLNYSNPWVFRAMAGEMLFLANLGVDILRMDAVAFIWKQMGTSCENLPQAHALIRAFNAVMRIAAPAVFFKSEAIVHPDQVVQYIGQDECQIGYNPLQMALLWNTLATREVNLLHQALTYRHNLPEHTAWVNYVRSHDDIGWTFADEDAAYLGISGYDHRQFLNRFFVNRFDGSFARGVPFQYNPSTGDCQVSGTAAALVGLAQDDPHAVDRIKLLYSIALSTGGLPLIYLGDEVGTLNDDDWSQDSNKSDDSRWAHRPRYNEALYAQRNDPSTAAGQIYQDLRHMIAVRQSNPRFDGGRLVTFNTNNKHIIGYIRNNALLAFGNFSEYPQTVTAHTLQAMPFKAHDLIGGKTVSLNQDLTLQPYQVMWLEIA

Assays:
[1] = naringenin glucosylation acceptor reaction with recombinant glucansucrases (microplate screening); format: biochemical; conditions: sucrose 146 mM, naringenin 5 mM, 3% DMSO, 30° C., 24 h; HPLC-UV 340 nm peak areas
Procedure: (§1) The enzymatic extracts obtained are used to carry out the flavonoid glucosylation enzymatic screening reactions. The enzymatic activity of each centrifuged cell lysate is evaluated in the microplate format, by final weight after 30 minutes incubation in the presence of a final concentration of 146 mM of sucrose, by assaying the reducing sugars with 3,5-dinitrosalicylic acid (DNS). Finally, after dilution in ultrapure water, the absorbance is read at 540 nm.
(§2) The flavonoid acceptor reactions are then carried out in deep-well microplates, in a volume of 300 μl, at final concentrations of sucrose of 146 mM and of flavonoid of 2.5 mM (apigenin) or 5 mM (naringenin) (initially dissolved in 100% DMSO), and 140 μl of centrifuged cell lysate.
(§3) The final DMSO concentration in the reaction medium is 3% (v/v).
(§4) The incubation is carried out at 30° C. and at 700 rpm. After 24 hours, the enzymes are denatured at 95° C. for 15 minutes. These microplates are stored at −80° C. with a view to rapid evaluation of the flavonoid glucosylation by liquid-phase chromatography coupled to mass spectrometry (HPLC-MS or LC-MS).
(§5) With a view to their analyses by HPLC-MS, the extensively homogenized reaction media are diluted to 1/30th in DMSO. The separation of the flavonoids and of their glucosylated forms is carried out in reverse phase with a ProntoSlL Eurobond® 53×3.0 mm 120-3-C18-AQ column (porosity of 120 Å, particle size of 3 μm, C18 grafting, Bischoff Chromatography, Germany).
(§6) The flavonoid glucosylation efficiency was determined from the following formula: Glucosylation efficiency=(Σ(area of the peak of glucosylated flavonoid(s)))/(Σ(area of the peak of glucosylated flavonoid(s))+area of the peak of residual aglycone flavonoid)×100
The flavonoid glucosylation efficiency was determined from the formula set out in example 2. The flavonoid glucosylation efficiencies, expressed as a percentage, were calculated from the areas of the peaks of the various products analyzed, as described in example 1, by HPLC with a UV detector (λ340 nm), after 24 h of reaction.

[2] = apigenin glucosylation acceptor reaction with recombinant glucansucrases (microplate screening); format: biochemical; conditions: sucrose 146 mM, apigenin 2.5 mM, 3% DMSO, 30° C., 24 h; HPLC-UV 340 nm peak areas
Procedure: as §1, §2, §3, §4, §5, §6
The flavonoid glucosylation efficiencies, expressed as a percentage, were calculated from the areas of the peaks of the various products analyzed, as described in example 1, by HPLC with a UV detector (340 nm) after 24 h of reaction.

Molecule	naringenin glucosylation efficiency [1] [%]	apigenin glucosylation efficiency [2] [%]
B1	0.0	0.0
B2	0.0	0.2
B3	5.4	1.2
B4	0.0	0.2
B5	0.0	0.1
B6	0.0	0.4
B7	0.0	0.3
B8	0.0	0.2
B9	6.7	0.4
B10	0.0	0.7
B11	6.9	1.9
B12	0.0	0.9
B13	6.8	0.2
B14	7.2	0.0
B15	3.8	0.4
B16	0.0	1.9
